Experimental data: PMC5234850 (Cell reports, 2017)

T1: human Mre11 core (2-411aa), N-terminal his-tagged (human, UniProt P49959 2-411)
T1 sequence (looked up): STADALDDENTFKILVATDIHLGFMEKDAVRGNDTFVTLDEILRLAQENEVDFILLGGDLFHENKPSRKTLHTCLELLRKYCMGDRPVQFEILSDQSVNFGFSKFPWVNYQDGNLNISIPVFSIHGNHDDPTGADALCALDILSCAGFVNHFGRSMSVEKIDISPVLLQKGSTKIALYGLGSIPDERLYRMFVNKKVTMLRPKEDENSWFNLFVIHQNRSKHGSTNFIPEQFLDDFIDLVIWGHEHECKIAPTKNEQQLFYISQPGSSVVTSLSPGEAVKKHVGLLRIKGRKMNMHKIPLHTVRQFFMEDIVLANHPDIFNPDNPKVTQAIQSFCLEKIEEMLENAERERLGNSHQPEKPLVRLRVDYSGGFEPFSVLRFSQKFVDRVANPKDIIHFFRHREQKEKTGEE

B1: human Nbs1 F4 (622-729aa) fused to maltose binding protein (domain or fragment, UniProt O60934 622-729, looked up)
chain: KKRELKEDSLWSAKEISNNDKLQDDSEMLPKKLLLTEFRSLVIKNSTSRNPSGINDDYGQLKNFKKFKKVTYPGAGKLPHIIGGSDLIAHHARKNTELEEWLRQEMEV

Key:
[1] = molecular target: human Mre11 core (2-411aa), N-terminal his-tagged (human) (UniProt P49959); experiment: SEC
[2] = molecular target: T1, human Mre11 core (2-411aa), N-terminal …; experiment: SEC

Row | Molecule | stoichiometry N [1] | binding result [2]
1 | human Mre11 core (2-411aa), N-terminal his-tagged (from UniProt P49959 2-411) (domain or fragment) | 2 | –
2 | B1 | – | binds
